B1: Mesorhizobium loti Mlo I (Q98MY5) (enzyme)
chain: MKTVLCYGDSLTWGYNAEGGRHALEDRWPSVLQAALGAGVQVIADGLNGRTTAFDDHLAGADRNGARLLPTVLTTHAPIDLIIFMLGANDMKPWIHGNPVAAKQGIQRLIDIVRGHDYPFDWPAPQILIVAPPVVSRTENADFKEMFAGGDDASKFLAPQYAALADEAGCGFFDAGSVAQTTPLDGVHLDAENTREIGKALTPIVRVMLEL
notes: Expressed in E. coli from pET26_Mlo; also called pET26_Mlo; pET26_MlO
B2: Sinorhizobium meliloti SmeII (Q92XZ1) (enzyme)
chain: MEETVARTVLCFGDSNTHGQVPGRGPLDRYRREQRWGGVLQGLLGPNWQVIEEGLSGRTTVHDDPIEGSLKNGRTYLRPCLQSHAPLDLIIIMLGTNDLKRRFNMPPSEVAMGIGCLVHDIRELSPGRTGNDPEIMIVAPPPMLEDLKEWESIFSGAQEKSRKLALEFEIMADSLEAHFFDAGTVCQCSPADGFHIDEDAHRLLGEALAQEVLAIGWPDA
notes: Expressed in E. coli from pET26_SmeII; also called pET26_SmeII
B3: Sinorhizobium meliloti SmeI (SMa1993) (enzyme)
chain: MTINSHSWRTLMVEKRSVLCFGDSLTWGWIPVKGSSPTLRYPYEQRWTGAMAARLGDGYHIIEEGLSARTTSLDDPNDARLNGSTYLPMALASHLPLDLVIIMLGTNDTKSYFHRTPYEIANGMGKLVGQVLTCAGGVGTPYPAPKVLVVAPPPLAPMPDPWFEGMFGGGYEKSKELSGLYKALADFMKVEFFAAGDCISTDGIDGIHLSAETNIRLGHAIADKVAALF
B4: Sinorhizobium meliloti RSM02162 (G00355) (enzyme)
chain: MVEKRSVLCFGDSLTWGWIPVKESSPTLRYPYEQRWTGAMAARLGDGYHIIEEGLSARTTSLDDPNDARLNGSTYLPMALASHLPLDLVIIMLGTNDTKSYFHRTPYEIANGMGKLVGQVLTCAGGVGTPYPAPKVLVVAPPPLAPMPDPWFEGMFGGGYEKSKELSGLYKALADFMKVEFFAAGDCISTDGIDGIHLSAETNIRLGHAIADKVAALF
notes: Synthetic gene G00355, expressed in E. coli from pMC355rbs; also called pMC355rbs
B5: S279_M70aE8 metagenomic GDSL-type esterase (enzyme)
chain: MPKIAKLAPSDVIVAFGDSLTFGTGATEAESYPIVLAQLIGRTVVRAGVPGEVTEGGLARLTDVIEEHKPKLIIVCLGGNDMLRKVQEDQTRANLRAIIKTIKAQGIAVVLVGVPKPALVTSAPPFYEEIAKEFGIPYEGKIVTDVLYQRDQKSDSIHPNAKGYRRMAEAIATLLKKSGAI
B6: Moraxella bovis Mbo (AAK53448) (enzyme)
chain: KEFSQVIIFGDSLSDTGRLKDMVARKDGTLGNTLQPSFTTNPDPVWSSLFAQSYGKTASPNTPDNPTGTNYAVGGARSGSEVNWNGFVNVPSTKTQITDHLTATGGKADPNTLYAIWIGSNDLISASQATTTAEAQNAIKGAVTRTVIDIETLNQAGATTILVPNVPDLSLTPRAIYGESLMAGVQDKAKLASSLYNSGLFEALNQSTANIIPANTFALLQEATTNKEAFGFKNTQGVACQMPARTTGADDVASTSLACTKANLIENGANDTYAFADDIHPSGRTHRILAQYYRSIMDAPTHMGKLSGELVKTGSAHDRHVYRQLDRLSGSQHSIWANVYASDRTDPTTQIGLDVAGSSSHTGAYLSHQNQDYVLDDTLSSDVKTIGMGLYHRHDIGNVRLKGVAGIDRLSVDTHRHIDWEGTSRSHTADTTARRFHAGLQASYGIDMGKATVRPLIGVHAQKVKVNDMTESESTLSTAMRFGEQEQKSLQGEIGVDVAYPISPALTLTGGIAHAHEFNDDERTINATLTSIREYTKGFNTSVSTDKSHATTAHLGVQGQLGKANIHAGVHATHQDSDTDVGGSLGVRLMF
notes: Described as an outer membrane localized autotransporter protein; also called pET26_Mbo
B7: Salmonella typhimurium Stm (AAC38796) (enzyme)
chain: FDSLTVIGDSLSDTGNNGRWTWDSGQNKLYDEQLAERYGLELSPSSNGGSNYAAGGATATPELNPQDNTADQVRQWLAKTGGKADHNGLYIHWVGGNDLAAAIAQPTMAQQIAGNSATSAAAQVGLLLDAGAGLVVVPNVPDISATPMLLEAVITAGLGAAAPPALKAALDALAEGATPDFASRQQAIRKALLAAAATVSSNPFIQQLLVEQLLAGYEAAAGQASALTDYYNQMEEKGLEQHGGNIARADINGLFKEILANPQAFGLTNTVGMACPPGVSASACSSAMPGFNASQDYVFADHLHPGPQVHTIIAQYIQSIIAAPVQATYLNQSVQSMAQGSRTTLDSRYQQLRQGENPVGSLGMFGGYSGGYQRYDNNEADGNGNHNNLTVGVDYQLNEQVLLGGLIAGSLDKQHPDDNYRYDARGFQAAVFSHLRAGQAWLDSDLHFLSAKFSNIQRSITLGALRRVEEGETNGRLSGASLTSGYDFVMVPWLTTGPMLQYAWDYSHVNGYSEKLNTSTSMRFGDQNAHSQVGSAGWRLDLRHSIIHSWAQINYRRQFGDDTYVANGGLKSTALTFSRDGKTQDKNWVDIAIGADFPLSATVSAFAGLSQTAGLSDGNQTRYNVGFSARF
notes: Described as an outer membrane localized autotransporter protein; also called Sty
B8: S261_M2aA12 metagenomic GDSL-type esterase (enzyme)
chain: MKNILAFGDSLTWGFVAGQDARHPFETRWPNALAAGLGGKARVIEEGQNGRTTVFDDAATFESRNGSVALPLLLISHQPLDLVIIMLGTNDIKFAARCRAFDASMGMERLIQIVRSANYMKGYKIPEILIISPPSLVPTQDEWFNDLWGHAIAESKLFAKHYKRVAEELKVHFFDAGTVAVADKTDGGHLDAVNTKAIGVALVPVVKSILAL
notes: Metagenomic clone; also called pET26_m2aA12

Columns and labels:
[1] = biological target: the molecule itself; test: self-association; Sephadex 200 sizing column, fractions assayed for pNB activity; standards 669 kDa 16 ml, 158 kDa 24 ml, 43 kDa 26 ml, 14 kDa 32 ml
[2] = biological target: S279_M70aE8 metagenomic GDSL-type esterase; test: as above

Binder	elution volume [1] [mL]	elution volume [2] [mL]
B1	24	–
B2	24	–
B3	24	–
B4	24	–
B5	–	32
B6	24	–
B7	24	–
B8	24	–

From patent US8772007 (dated 2014)
